B1: EEHEE_rd3_1049 (parent)
chain: TTVKLGDIKVTFDNPEKAKKYAQKLAKIYQLTVHVHGDTIHVK
B2: 5KPH (parent)
chain: EEKRQVKQVAKEKLLEQSPNSKVQVRRVQKQGNTIRVELELRTNGKKENYTVEVERQGNTWTVKRITRT

Variants of: B1
Assay: folding stability dG (cDNA display proteolysis); higher = more stable
Conditions: PBS, room temperature

Folding stability dG [kcal/mol]: each site, then its substitutions
K9: S 2.43; C 3.33; A 2.06; I 2.46; H 2.06; M 2.34; E 2.27; G 1.25; P 0.591; T 2.42; Y 2.42; R 2.23; Q 2.06; N 1.76; D 1.28; L 2.39; F 2.24; W 2.47; V 2.38
L5: P 0.495; W 2.83; R 0.884; S 0.683; D 0.531; N 0.735; A 0.939; C 3.38; I 2.79; H 1.59; Y 2.12; M 2.24; E 0.422; Q 0.604; G 0.536; K 0.76; T 0.739; V 2.08; F 2.71
T11: C 2.98; A 1.48; I 2.33; D 1.08; H 2.31; E 1.58; N 1.65; F 2.51; M 2.15; K 2.06; G 0.999; L 2.21
G6: K 1.41; L 1.61; H 1.75; F 2.02; Q 1.12; P 0.61; M 1.55; W 2.23; Y 1.89; D 0.87; C 3.09; N 1.45; E 0.771; S 1.05; V 1.2; I 1.49; R 1.76; T 0.948; A 1.24
V3: Y 0.622; K 0.686; P 0.746; W 0.663; D 0.577; E 0.57; R 0.673; I 1.34; N 0.593; A 0.626; F 0.742; L 1.09; C 2.3; M 0.732; G 0.742; T 0.665; S 0.71; H 0.671; Q 0.609
T1: D 0.651; N 1.1; S 1.23; W 2.77; R 1.28; E 0.641; H 1.56; Y 2.52; P 1.02; Q 1.06; K 1.19; A 1.43; V 2.14; I 2.27; G 0.959; L 1.76; F 2.42; M 2.14; C 3.02
V10: E 0.411; R 1.79; W 3.21; L 2.08; M 2; T 1.12; K 1.72; C 2.92; H 1.06; D 0.272; I 2.48; G 0.275; S 0.658; Y 1.95; N 0.575; A 0.985; F 2.35; Q 0.914; P 0.26
I8: R 1.94; F 2.95; H 2.62; A 1.18; D 0.538; C 3.42; N 1.21; S 1.37; Q 1.28; L 2.19; G 0.616; V 1.88; P 0.237; M 2.1; W 3.22; T 1.54; K 1.83; E 0.747; Y 2.87
K4: N 1.34; Q 2.35; E 1.6; I 3.17; V 2.91; R 2.18; Y 2.5; L 2.47; G 0.845; W 2.76; H 2.07; S 1.61; C 3.22; F 2.4; M 2.47; A 1.71; D 1.09; P 0.652; T 1.85
D7: N 2.85; M 2.63; G 2.39; C 3.56; F 2.83; Y 2.94; P 2.31; E 1.97; H 2.79; R 3.21; Q 2.5; T 2.56; S 2.73; I 2.64; K 3.17; V 2.52; A 2.6; W 3.24; L 2.69
T2: C 2.33; V 2.12; G 0.901; K 1.26; I 2.23; H 1.82; N 1.17; R 1.03; P 0.739; L 1.51; E 1.06; D 1.01; M 1.65; S 1.4; A 1.22; W 1.6; F 1.67; Q 1.28; Y 1.72

Variants of: B2
Assay: as above
Conditions: PBS, room temperature

Folding stability dG [kcal/mol], by site and new letter:
R65: F 3.53; N 3.73; I 3.43; T 4.05; Q 3.84; D 3.59; H 3.58; E 3.61; M 3.84; L 3.67; A 4.27; V 3.54; Y 3.7; G 3.6; K 4.01; C 3.44; S 4.29; P 1.4; W 3.63
V63: Q 1.16; T 2.51; Y 2.01; W 2.07; K 0.466; F 2.78; S 1.81; M 2.06; N 0.507; E 1.26; I 3.47; R 0.762; A 3.02; D 0.956; H 1.18; L 2.88; P 2.8; G 1.35; C 2.96
T67: I 4.09; R 3.73; D 3.3; H 3.62; N 3.32; Y 4.38; K 3.55; L 4.01; C 3.68; E 3.64; M 3.98; V 3.96; F 4.23; P 1.34; A 3.46; G 3.01; Q 3.54; S 3.68; W 4.45
K64: C 3.62; W 3.08; F 3.7; R 3.94; V 4.3; H 3.25; L 4.27; N 3.48; I 4.47; G 3.25; A 3.83; E 2.86; M 4.28; S 3.94; P 2.28; T 4.29; Q 3.56; Y 3.5; D 2.18
T69: K 3.73; W 4.08; E 3.82; L 3.98; Q 3.9; R 3.89; M 4.13; V 3.86; I 3.99; G 3.7; Y 4; P 2.87; D 3.73; F 3.52; S 3.75; N 3.87; A 3.68; H 4.21; C 3.56
I66: N 1.2; E 1.1; W 3.15; K 1.54; S 2.1; H 1.67; Q 1.95; M 3.38; F 3.04; L 3.25; P 1.72; C 2.88; G 0.993; V 3.94; R 1.28; D 0.142; Y 2.85; A 2.2
R68: H 3.59; T 3; I 3.67; W 3.07; P 3.54; V 3.46; S 3.21; D 2.65; E 3.13; Q 3.73; L 4.21; N 3.89; K 3.99; C 3.34; G 2.87; F 3.53; M 3.95; A 3.4; Y 3.32
